# Assay results taken from article PMC9482650, “Quantitative fragmentomics allow affinity mapping of interactomes” (Nature Communications, 2022).
# T1: ARHGEF11, O15085
# T1 sequence (O15085 42-136, limits assumed, looked up): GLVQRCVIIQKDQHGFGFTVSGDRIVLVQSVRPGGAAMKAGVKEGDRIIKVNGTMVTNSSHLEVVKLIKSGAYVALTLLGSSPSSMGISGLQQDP
# T2: DFNB31_1, Q9P202
# T2 sequence (Q9P202 135-233, limits assumed, looked up): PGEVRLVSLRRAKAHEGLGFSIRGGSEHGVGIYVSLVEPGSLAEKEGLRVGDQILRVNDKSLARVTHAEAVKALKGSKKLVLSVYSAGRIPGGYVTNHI
# T3: DFNB31_2, Q9P202
# T3 sequence (Q9P202 274-371, limits assumed, looked up): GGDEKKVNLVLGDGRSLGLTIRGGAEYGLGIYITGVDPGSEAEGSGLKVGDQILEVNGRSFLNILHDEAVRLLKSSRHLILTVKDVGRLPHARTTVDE
# T4: GRIP1_3, Q9Y3R0
# T4 sequence (Q9Y3R0 247-346, limits assumed, looked up): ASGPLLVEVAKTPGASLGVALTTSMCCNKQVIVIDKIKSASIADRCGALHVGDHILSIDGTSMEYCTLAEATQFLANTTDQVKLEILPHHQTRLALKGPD
# T5: LIN7C, Q9NUP9
# T5 sequence (Q9NUP9 88-185, limits assumed, looked up): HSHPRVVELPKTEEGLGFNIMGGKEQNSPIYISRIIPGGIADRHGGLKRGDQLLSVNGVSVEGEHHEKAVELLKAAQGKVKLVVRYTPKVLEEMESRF
# T6: LNX2_3, Q8N448
# T6 sequence (Q8N448 463-564, limits assumed, looked up): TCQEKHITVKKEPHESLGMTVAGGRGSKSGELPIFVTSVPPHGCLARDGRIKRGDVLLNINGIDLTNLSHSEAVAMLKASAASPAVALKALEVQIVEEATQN
# T7: MPP2, Q14168
# T7 sequence (Q14168 180-250, limits assumed, looked up): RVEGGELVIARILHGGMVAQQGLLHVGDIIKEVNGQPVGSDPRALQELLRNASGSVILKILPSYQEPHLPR
# T8: PARD3B_1, Q8TEW8
# T8 sequence (Q8TEW8 196-299, limits assumed, looked up): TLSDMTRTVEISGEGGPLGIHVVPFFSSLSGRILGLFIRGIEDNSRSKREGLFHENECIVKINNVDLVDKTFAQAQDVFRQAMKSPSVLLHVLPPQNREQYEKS
# T9: RADIL, Q96JH8
# T9 sequence (Q96JH8 971-1071, limits assumed, looked up): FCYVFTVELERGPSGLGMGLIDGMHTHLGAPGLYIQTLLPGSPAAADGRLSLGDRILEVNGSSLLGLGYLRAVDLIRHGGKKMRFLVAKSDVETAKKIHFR
# T10: SIPA1L2, Q9P2F8
# T10 sequence (Q9P2F8 945-1036, limits assumed, looked up): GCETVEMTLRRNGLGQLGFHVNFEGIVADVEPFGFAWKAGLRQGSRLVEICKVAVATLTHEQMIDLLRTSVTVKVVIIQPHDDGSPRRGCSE
# T11: SNTG2, Q9NY99
# T11 sequence (Q9NY99 68-166, limits assumed, looked up): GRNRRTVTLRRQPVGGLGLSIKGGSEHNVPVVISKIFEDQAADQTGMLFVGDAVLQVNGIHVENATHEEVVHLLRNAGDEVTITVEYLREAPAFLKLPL
# T12: TJP3_3, O95049
# T12 sequence (O95049 375-456, limits assumed, looked up): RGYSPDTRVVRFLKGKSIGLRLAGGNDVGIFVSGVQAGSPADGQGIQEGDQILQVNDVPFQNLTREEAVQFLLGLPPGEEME
# Biological target: T1, ARHGEF11, O15085
# Assay: holdup assay
# Design: key: below the threshold = too weak to quantify, mostly under pKd 3.1 to 4
# Conditions: plain residues with an end cap or a label only (N-terminal biotin on a linker: ado-ado)
row,Binder,pKd
1,"EIPAQSPTCV [FZD10, Q9ULW2]",4.2

# Biological target: CASK, O14936
# Assay: holdup assay
# Design: key: below the threshold = too weak to quantify, mostly under pKd 3.1 to 4
# Conditions: plain residues with an end cap or a label only (N-terminal biotin on a linker: ado-ado)
# Sequence of CASK, O14936 (O14936 487-570): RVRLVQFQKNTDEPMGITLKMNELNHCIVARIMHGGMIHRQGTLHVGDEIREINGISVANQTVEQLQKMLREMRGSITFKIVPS
row,Binder,pKd
1,"EIPAQSPTCV [FZD10, Q9ULW2]",3.59

# Biological target: T2, DFNB31_1, Q9P202
# Assay: holdup assay
# Design: key: below the threshold = too weak to quantify, mostly under pKd 3.1 to 4
# Conditions: plain residues with an end cap or a label only (N-terminal biotin on a linker: ado-ado)
row,Binder,pKd
1,"EIPAQSPTCV [FZD10, Q9ULW2]",3.67

# Biological target: T3, DFNB31_2, Q9P202
# Assay: holdup assay
# Design: key: below the threshold = too weak to quantify, mostly under pKd 3.1 to 4
# Conditions: plain residues with an end cap or a label only (N-terminal biotin on a linker: ado-ado)
row,Binder,pKd
1,"EIPAQSPTCV [FZD10, Q9ULW2]",below the threshold

# Biological target: DLG1_2, Q12959
# Assay: holdup assay
# Design: key: below the threshold = too weak to quantify, mostly under pKd 3.1 to 4
# Conditions: plain residues with an end cap or a label only (N-terminal biotin on a linker: ado-ado)
# Sequence of DLG1_2, Q12959 (Q12959 314-412): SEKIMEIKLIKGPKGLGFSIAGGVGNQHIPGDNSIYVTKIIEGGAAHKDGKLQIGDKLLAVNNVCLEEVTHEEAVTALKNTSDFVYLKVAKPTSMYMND
row,Binder,pKd
1,"EIPAQSPTCV [FZD10, Q9ULW2]",3.86

# Biological target: DLG5_1, Q8TDM6
# Assay: holdup assay
# Design: key: below the threshold = too weak to quantify, mostly under pKd 3.1 to 4
# Conditions: plain residues with an end cap or a label only (N-terminal biotin on a linker: ado-ado)
# Sequence of DLG5_1, Q8TDM6 (Q8TDM6 617-713): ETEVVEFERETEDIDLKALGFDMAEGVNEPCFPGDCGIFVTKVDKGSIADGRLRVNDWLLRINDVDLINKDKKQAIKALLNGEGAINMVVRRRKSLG
row,Binder,pKd
1,"EIPAQSPTCV [FZD10, Q9ULW2]",3.71

# Biological target: FRMPD2_1, Q68DX3
# Assay: holdup assay
# Design: key: below the threshold = too weak to quantify, mostly under pKd 3.1 to 4
# Conditions: plain residues with an end cap or a label only (N-terminal biotin on a linker: ado-ado)
# Sequence of FRMPD2_1, Q68DX3 (Q68DX3 770-861): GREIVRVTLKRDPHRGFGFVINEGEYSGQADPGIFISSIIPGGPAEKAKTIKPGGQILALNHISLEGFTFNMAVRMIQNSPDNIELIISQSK
row,Binder,pKd
1,"EIPAQSPTCV [FZD10, Q9ULW2]",3.92

# Biological target: FRMPD3, Q5JV73
# Assay: holdup assay
# Design: key: below the threshold = too weak to quantify, mostly under pKd 3.1 to 4
# Conditions: plain residues with an end cap or a label only (N-terminal biotin on a linker: ado-ado)
# Sequence of FRMPD3, Q5JV73 (Q5JV73 12-100): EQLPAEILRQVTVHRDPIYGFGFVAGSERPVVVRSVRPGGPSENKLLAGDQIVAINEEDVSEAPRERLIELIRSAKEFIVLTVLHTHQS
row,Binder,pKd
1,"EIPAQSPTCV [FZD10, Q9ULW2]",3.49

# Biological target: GIPC2, Q8TF65
# Assay: holdup assay
# Design: key: below the threshold = too weak to quantify, mostly under pKd 3.1 to 4
# Conditions: plain residues with an end cap or a label only (N-terminal biotin on a linker: ado-ado)
# Sequence of GIPC2, Q8TF65 (Q8TF65 112-203): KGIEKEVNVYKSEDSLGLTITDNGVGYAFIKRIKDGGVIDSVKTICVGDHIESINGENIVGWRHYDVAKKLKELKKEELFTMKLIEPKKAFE
row,Binder,pKd
1,"EIPAQSPTCV [FZD10, Q9ULW2]",3.74

# Biological target: T4, GRIP1_3, Q9Y3R0
# Assay: holdup assay
# Design: key: below the threshold = too weak to quantify, mostly under pKd 3.1 to 4
# Conditions: plain residues with an end cap or a label only (N-terminal biotin on a linker: ado-ado)
row,Binder,pKd
1,"EIPAQSPTCV [FZD10, Q9ULW2]",below the threshold

# Biological target: GRIP2_7, Q9C0E4
# Assay: holdup assay
# Design: key: below the threshold = too weak to quantify, mostly under pKd 3.1 to 4
# Conditions: plain residues with an end cap or a label only (N-terminal biotin on a linker: ado-ado)
# Sequence of GRIP2_7, Q9C0E4 (Q9C0E4 934-1023): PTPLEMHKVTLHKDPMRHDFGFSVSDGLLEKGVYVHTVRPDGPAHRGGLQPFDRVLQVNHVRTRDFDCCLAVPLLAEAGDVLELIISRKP
row,Binder,pKd
1,"EIPAQSPTCV [FZD10, Q9ULW2]",3.7

# Biological target: Inadl_5, Q8NI35
# Assay: holdup assay
# Design: key: below the threshold = too weak to quantify, mostly under pKd 3.1 to 4
# Conditions: plain residues with an end cap or a label only (N-terminal biotin on a linker: ado-ado)
# Sequence of Inadl_5, Q8NI35 (Q8NI35 673-780): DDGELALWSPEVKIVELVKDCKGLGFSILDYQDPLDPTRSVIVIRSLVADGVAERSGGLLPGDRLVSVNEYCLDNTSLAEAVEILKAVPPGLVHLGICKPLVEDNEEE
row,Binder,pKd
1,"EIPAQSPTCV [FZD10, Q9ULW2]",below the threshold

# Biological target: T5, LIN7C, Q9NUP9
# Assay: holdup assay
# Design: key: below the threshold = too weak to quantify, mostly under pKd 3.1 to 4
# Conditions: plain residues with an end cap or a label only (N-terminal biotin on a linker: ado-ado)
row,Binder,pKd
1,"EIPAQSPTCV [FZD10, Q9ULW2]",below the threshold

# Biological target: T6, LNX2_3, Q8N448
# Assay: holdup assay
# Design: key: below the threshold = too weak to quantify, mostly under pKd 3.1 to 4
# Conditions: plain residues with an end cap or a label only (N-terminal biotin on a linker: ado-ado)
row,Binder,pKd
1,"EIPAQSPTCV [FZD10, Q9ULW2]",3.78

# Biological target: MAGI1_2, Q96QZ7
# Assay: holdup assay
# Design: key: below the threshold = too weak to quantify, mostly under pKd 3.1 to 4
# Conditions: plain residues with an end cap or a label only (N-terminal biotin on a linker: ado-ado)
# Sequence of MAGI1_2, Q96QZ7 (Q96QZ7 456-580): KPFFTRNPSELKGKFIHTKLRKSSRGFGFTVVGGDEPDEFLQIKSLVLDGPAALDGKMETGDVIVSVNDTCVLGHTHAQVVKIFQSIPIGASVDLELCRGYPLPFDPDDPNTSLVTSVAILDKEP
row,Binder,pKd
1,"EIPAQSPTCV [FZD10, Q9ULW2]",3.88

# Biological target: MAGI2_2, Q86UL8
# Assay: holdup assay
# Design: key: below the threshold = too weak to quantify, mostly under pKd 3.1 to 4
# Conditions: plain residues with an end cap or a label only (N-terminal biotin on a linker: ado-ado)
# Sequence of MAGI2_2, Q86UL8 (Q86UL8 410-522): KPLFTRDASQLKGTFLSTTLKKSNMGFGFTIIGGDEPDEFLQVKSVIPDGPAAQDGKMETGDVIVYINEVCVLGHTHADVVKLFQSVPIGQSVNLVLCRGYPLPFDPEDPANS
row,Binder,pKd
1,"EIPAQSPTCV [FZD10, Q9ULW2]",4.17

# Biological target: MAGI2_4, Q86UL8
# Assay: holdup assay
# Design: key: below the threshold = too weak to quantify, mostly under pKd 3.1 to 4
# Conditions: plain residues with an end cap or a label only (N-terminal biotin on a linker: ado-ado)
# Sequence of MAGI2_4, Q86UL8 (Q86UL8 772-865): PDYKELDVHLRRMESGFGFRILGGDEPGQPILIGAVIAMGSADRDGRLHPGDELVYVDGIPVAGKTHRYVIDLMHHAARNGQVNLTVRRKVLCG
row,Binder,pKd
1,"EIPAQSPTCV [FZD10, Q9ULW2]",3.65

# Biological target: MAST1, Q9Y2H9
# Assay: holdup assay
# Design: key: below the threshold = too weak to quantify, mostly under pKd 3.1 to 4
# Conditions: plain residues with an end cap or a label only (N-terminal biotin on a linker: ado-ado)
# Sequence of MAST1, Q9Y2H9 (Q9Y2H9 962-1065): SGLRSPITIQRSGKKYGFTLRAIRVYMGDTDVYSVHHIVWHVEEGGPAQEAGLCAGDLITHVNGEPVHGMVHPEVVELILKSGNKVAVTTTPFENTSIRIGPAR
row,Binder,pKd
1,"EIPAQSPTCV [FZD10, Q9ULW2]",below the threshold

# Biological target: T7, MPP2, Q14168
# Assay: holdup assay
# Design: key: below the threshold = too weak to quantify, mostly under pKd 3.1 to 4
# Conditions: plain residues with an end cap or a label only (N-terminal biotin on a linker: ado-ado)
row,Binder,pKd
1,"EIPAQSPTCV [FZD10, Q9ULW2]",below the threshold

# Biological target: T8, PARD3B_1, Q8TEW8
# Assay: holdup assay
# Design: key: below the threshold = too weak to quantify, mostly under pKd 3.1 to 4
# Conditions: plain residues with an end cap or a label only (N-terminal biotin on a linker: ado-ado)
row,Binder,pKd
1,"EIPAQSPTCV [FZD10, Q9ULW2]",below the threshold

# Biological target: T9, RADIL, Q96JH8
# Assay: holdup assay
# Design: key: below the threshold = too weak to quantify, mostly under pKd 3.1 to 4
# Conditions: plain residues with an end cap or a label only (N-terminal biotin on a linker: ado-ado)
row,Binder,pKd
1,"EIPAQSPTCV [FZD10, Q9ULW2]",4.47

# Biological target: T10, SIPA1L2, Q9P2F8
# Assay: holdup assay
# Design: key: below the threshold = too weak to quantify, mostly under pKd 3.1 to 4
# Conditions: plain residues with an end cap or a label only (N-terminal biotin on a linker: ado-ado)
row,Binder,pKd
1,"EIPAQSPTCV [FZD10, Q9ULW2]",3.69

# Biological target: T11, SNTG2, Q9NY99
# Assay: holdup assay
# Design: key: below the threshold = too weak to quantify, mostly under pKd 3.1 to 4
# Conditions: plain residues with an end cap or a label only (N-terminal biotin on a linker: ado-ado)
row,Binder,pKd
1,"EIPAQSPTCV [FZD10, Q9ULW2]",3.85

# Biological target: TJP1_2, Q07157
# Assay: holdup assay
# Design: key: below the threshold = too weak to quantify, mostly under pKd 3.1 to 4
# Conditions: plain residues with an end cap or a label only (N-terminal biotin on a linker: ado-ado)
# Sequence of TJP1_2, Q07157 (Q07157 181-274): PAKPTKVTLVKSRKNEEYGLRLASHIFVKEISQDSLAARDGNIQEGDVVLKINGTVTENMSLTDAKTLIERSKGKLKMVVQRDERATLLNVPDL
row,Binder,pKd
1,"EIPAQSPTCV [FZD10, Q9ULW2]",3.78

# Biological target: TJP2_1, Q9UDY2
# Assay: holdup assay
# Design: key: below the threshold = too weak to quantify, mostly under pKd 3.1 to 4
# Conditions: plain residues with an end cap or a label only (N-terminal biotin on a linker: ado-ado)
# Sequence of TJP2_1, Q9UDY2 (Q9UDY2 24-128): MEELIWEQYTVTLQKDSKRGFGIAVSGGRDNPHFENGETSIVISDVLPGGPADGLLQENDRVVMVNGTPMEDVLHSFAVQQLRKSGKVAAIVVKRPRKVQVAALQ
row,Binder,pKd
1,"EIPAQSPTCV [FZD10, Q9ULW2]",3.82

# Biological target: T12, TJP3_3, O95049
# Assay: holdup assay
# Design: key: below the threshold = too weak to quantify, mostly under pKd 3.1 to 4
# Conditions: plain residues with an end cap or a label only (N-terminal biotin on a linker: ado-ado)
row,Binder,pKd
1,"EIPAQSPTCV [FZD10, Q9ULW2]",3.78
